Assay results reported in the DeepSol protein solubility set.

assay: soluble on expression in E. coli; label from the status in PepcDB or PDB records

Row | Sequence | soluble on expression in E. coli
1 | MGSDKIHHHHHHLKKITNFRSLGGYQNAHGQMVKDGLIFRSGQLFELEDDQSHYLGQTLGIKHIVDMRSDDERTEFPDTVWEGADYAVLDILKDATANNASLGRMITEKGNVHENMLATYEQLALSDSAKTGYRQFIQGLLRPNEPTIFHCFAGKDRTGVGAALILKILDVSEQDIMADYLQTNAERTVANEEILAGLKERGFTDQQLKSIGEALKVDADYLRRYFQVIDQQFGPFQQYLREGLKLSAGEIAQFRDLYLQK | not soluble
2 | MGSDKIHHHHHHLKVIAIGDNVVDLYPADKQMYLGGHAANTAVFAAELGLQAAYIGTFGNDARGDFARRMLVERGVDVQHSLQYVGRNAFTTITGKDGARRKVVGEPPQELRLDPEDIAYINSFDLVYLNSESHADAFLQAITARKVYDFSILDDDKLFKKIAPQIDLAYLSGKARSDDDVEALMRRVAAAGCDRIVCSRGLRGSAALVDGMMSWQQALGVKAVDSLGAGDAYITSFAATLYSSSKPTLDAKVSESLSHAAKFASAQVLLPGSFGHGAPLIS | not soluble
3 | MGSDKIHHHHHHLNQPLTPQPIKTMTDKRQAILDTALALFVSQGFHGTSTASIAKQAGVATGTLFHHFPSKEALMESLFLTIKQQFADTLLLNTHKGSDLKLNALQLWQSAIDWSLDNPVKQLFFQQYSMSPMIAAKVRDQAMNSILGFISELIKQGQMEGLIAHYPLELMLENCHGQYLAATRFFIDNPHLGTNTRYRDASFELFWKAMQAD | not soluble
4 | MGSDKIHHHHHHLRILNTAATGVRAQQTALDVLGNNMSNVNTPGYKAQRVNFAEALAAEMRPAEREFNGQPVGERIDVGAGVIYPTIDTDYRQGIIRETENPFDLAIDGEGFFPVRTANGESRYTRVGNFELDSQGKLVNSDGYILEVKIPADAMDLYVDETGNITGFIDDEERVLGRVVVNDPEGEGYPVGPIDMDELGRPLDWNGDILPTAFAVPEGAEDVQISTEGILSATIDGSRQTLGQINIITFANPEGLVRDGDNLYFAPDAAGVTGDELVGTPGSQVEERTLGKLKTQSLEQSNVNLASAMTEMIQVQRAYQLNARMITNGDQMWSMANSLRR | not soluble
5 | MGSDKIHHHHHHLSGCVSLPPPAPIVHQPMSARAALPAPPPGNGAVYQDANQYHSLFIDRRARQIGDTLVILLTERTNASKRSNSSANKNGDVSFGIPPIVFGVPITKKIDLGASSSNDFAGKGEAASANNFSGTITVTVVDVLPNSYLVVSGEKQLAMTQGSEYIRFSGVVRPETVISNTVSSIQVADARIEYKANGYIDEAQTMGWLSRFFLTVAPF | not soluble
6 | MGSDKIHHHHHHLVGISHDTDQRILEQAMNMIRENGEDQLSLRKLARAIGLTTGAFYKHFATKDALLRAVTQLLSQREEAEMAQVLGQITDPEEKLLVMAAEILERFEADPHLMHFLFFNPAARDVLKVEPGQFGFYDQVIQLIKDVLRKRGITIDPQILFIQLWSFIQGYGLLIDSGITSYDPNLVRKTLKDLLEVSND | not soluble
7 | MGSDKIHHHHHHLYRIFRPIARFIVWVLNGHLHVHHKERLPEGTYILVAPHRNWWEPILFALAASPTEFMFMTKQELFKNPVLRWILNNAHAFPVNREHPSPSVIKIPVRGLKSEGLSLIMFPSGTRHSASLKSGALVIARMSGRPLLPAVYQGPLTFKGVLQRKGIEINFGNPIVIDRKTKLTPETEAAYNQQLEDAWKQIDQELDPDFHYEAK | not soluble
8 | MGSDKIHHHHHHMAAEIIAVTQQKGGVGKSTIAMHLGAAFHEKGRRVLVIDADGQNTLVHWSSSSADSESGIPFPVVNLAEAGSQIHREIKKFINDYDIIIVDCPPSITEKVSGVVLLAATIAVIPTSSSPADYWSSVGLVKLIQQAQVMNEDLRAVFLLNKTEEKRMLTRELKRALEELGFPLLKTQIPTREAYKQAMALGQTVLQMNDRGAKLAAAEIRACADEIVAMLP | not soluble
9 | MGSDKIHHHHHHMAAKGKKKNFVLDTNVMLHDYECIEKFEENDIYIPIVSLEELDKFKKGSEQINFNARAFVRRLDEISDQDLFAKGASLGEGLGRIFVKINGQYHTKVKEAFGENKADHRILSIAMTLADEQPNIKTILVTKDVNLRMKARSLGMLVEDYINDKVTRVDLFENAEPEYEGVDGDLIDRIYASKDGIDIDEWELGSKIDPNDCFVMKSERNSVLARYNPFTGKIVRVEKGHYFGIQPRNAEQTFAMHILTDPNVKLIGLTGKAGTGKTLLALAAALSQEQSYKQILLARPIVSLANKDLGFLPGDEKAKVAPYMQPLFDNLNVIKGQLAQNSSELRRLDEMQKTEKLVIEALAYIRGRSVSETIFIVDEAQNLTPHEIKTIITRAGEGSKLIFTGDIEQIDSPYLDAQSNGLAYMIERMKGQPLFAHVNLIKGERSELSELASDLL | not soluble
10 | MGSDKIHHHHHHMAATSDYDVIVVGGGHNGLTCAGYLARAGKRVLVLERRPIVGGAVCTEEVIPGYKIDVGSSAHIMIHLTPIVRDLELERHGLEYIDMDPYAFYPLPDGSGAIYFYRDVERTCQSIATVSPRDAEAYRRFLDFWTPLNEAVFDVFLNPPSVTRLFGKVASSIPRLPKAEQKVLEVTRRLFTSYAQLIEETFESEAMRAAMTWLAAQSGPPPDEIGAGDFFGWHAMLHYSGAKHPRGGSGMLTQAMARSLKAMGGEVILDAPVRRILVQNGRVQAWKRQTVSAIRPRLLFPTLTC | not soluble
11 | MGSDKIHHHHHHMADFSNQIVTIKKGLDLPIAGEPRQVIELGAKPSQVAVLGEEFVGLKPTMLVEEGDWVQKGQALFEDKKTPGVLFTAPASGQVVAINRGERRILQSVVIRCDDGENRDGQISFEIHQDIAALARSTVQAQLVKSGLWTALRTRPFSRVPALDSTPAGIFVTAIDTNPLAADPRLIIAEQTEAFKAGLLVLSRLTEGKVYLCQDKGEAIVKEALPQLEVRRFDGVHPAGLVGTHIHFTLPVSLERQVWHIGYQDVIAYGKLFQTGELYTDRIVALGGPSVLNPRLLRTQLGAELSPLVSDDIKPGQNRVVSGSVLSGHTAVGVHDFLGRFHNQVSVLSEDAQHHVLSWVRGGSDKFSITRAVTSRLFGATKLFEFTTHQGGSARAMMAFGQLDRVMPLDILPTLLVRDLVVRDTDEAQALGALELDEEDLALCTFVCPGKYDFGKELRACLDVIEREG | not soluble
12 | MGSDKIHHHHHHMADRPHAEEGQTAGPAGQPGVAAWLDNQPPKWRPVASAIGSLELMTFFQFVLAAVLMSALPAHGADRIIYLTFDDGPLNGTSNILDVLEAEQVPATLFMVGMHAEAGASNKALVRRAKAMPLVTIGNHSYTHAYNHYRHFYGDTEGVVADMLMANVVLGLKPAVHARLPGRDVFRLPSMSKDDNSLGPAQAGREDPDYEFVAASGFYLYGWDHEWVHKDSGEPVQSVDHLVSEIDHLFGYGHFAKPGKLILLMHDEMFQDGFDGKTKLTDLITALKLRHYAFGTIPNYDH | not soluble
13 | MGSDKIHHHHHHMAEHIITLVLSGERLDVTTSTPFVVALRDLLYEGDWELLKEDMKKKENIMKEVQTCEKLEKVVHLDETVYEPLIFPEFQEWLREENITPKDFKNVSLKGLYDLALEYADRNLYDIAHDIIKFMLDIDENYAPAYELKGSLLVEQGKIEEGIKFLDKAVEIDPWLVQAYASLGEAYYNLGDYEKAIHYWERELEYNPNDKITYFMITEAYYEMNRKDLAVKTLERLLEIDPDNIPALYQLSQLYRELGNEEKAREMEEKIMNCKPKYPTELEPWARVMLKHGRYKEVAEELEKIVESSPLNTLARLLLVVPYVKLGQIDKAREILDDIGQSNFWYYYGKKEILDELLTEEEKRACGIS | not soluble
14 | MGSDKIHHHHHHMAERFRPLAMAGLAALALVLAGCGDTLESFGGPTMGSTYSIKYVRGASAPDVQTAKAAVEAILAEVDRQMSTYRDDSLVSRFNALPAQSCMELPLPMLELLRYGGELSEQSQGAFDMTVEPLMNLWGFGPQARVEKVPSAEQIAAVRRDVGHRHLRIDGQRLCKDAAVQLDFDSIAAGYTVDAVGERLKELGVRSYLAEITGELKAEGRKPDGTPWRIAIEAPREGQRVAQQVLALDGYGVSTSGDYRNYFEENGQRYSHTFDPRTGAPIDHHLASVTVIDPSTRNADGLSTLLMVLGPEEGYRFAEKHRLAALFVSRQGNGFDSRTTPRYEQLFGNQGERP | not soluble
